Patent US20230137139A1, “BIOSYNTHESIS OF CANNABINOIDS AND C[…]” (priority 2020, published 2023)

B1: t861557 (protein)
chain: MLKTIAAVVFICSQAFLVRADLKSELTALGVGAVFPGDSVYTSDAKPYNLRFDFKPAAITFPNTPADVSQIVQIAGKYAHKVAPRGGGHSYISNGVGGMDNSIIADMSHFKSIVVHTNNDTATIETGNRLGDIALALFQYGRGMPHGACPYVGIGGHANFGGFGFISRSWGLTLDVVEAIDLVLANGTITTVSATQNPDLYWAMRGSGSSFGITTAIHVRTFSAPASGIIALDTWYLNLEQAVRALSSFQDFAHNTVTLPSYFGGEFVVNAGPSPGLLSITFFSGFWGPPNQYNSTLAPWKNSMPFPPNTTSYSQGNYIESLSARFGGAPLDTSLGPDNTDTFYVKSLIVPQVTISDEGAQVGISDKAWRALFQYLINEQPNLPVDWFIEVELWGGQNSAINAVPQASTAFAYRDLLWTLQMYSYTPNHQPPYPDAGFAFNDGMANSIIHNMPNGWNYGAYTNYVDNRLDDWQRLYYANHYPALQALKSRYDPSDTFSFPTSIELL
B2: t861555 (protein)
chain: MGNTTSIAGRDCLISALGGNSALAVFPNELLWTADVHEYNLNLPVTPAAITYPETAAQIAGVVKCASDYDYKVQARSGGHSFGNYGLGGADGAVVVDMKHFTQFSMDDETYEAVIGPGTTLNDVDIELYNNGKRAMAHGVCPTIKTGGHFTIGGLGPTARQWGLALDHVEEVEVVLANSSIVRASNTQNQDVFFAVKGAAANFGIVTEFKVRTEPAPGLAVQYSYTFNLGSTAEKAQFVKDWQSFISAKNLTRQFYNNMVIFDGDIILEGLFFGSKEQYDALGLEDHFAPKNPGNILVLTDWLGMVGHALEDTILKLVGNTPTWFYAKSLGFRQDTLIPSAGIDEFFEYIANHTAGTPAWFVTLSLEGGAINDVAEDATAYAHRDVLFWVQLFMVNPVGPISDTTYEFTDGLYDVLARAVPESVGHAYLGCPDPRMEDAQQKYWRTNLPRLQELKEELDPKNTFHHPQGVMPA
B3: t808247 (protein)
chain: MGNTTSIAAGRDCLVSAVGPAHVTFQDALLYQTTAVDPYNLNIPVTPAAVTYPQSAEEIAAVVKCASDYDYKVQARSGGHSFGNYGLGGQNGAIVVDMKHFSQFSMDESTFVATIGPGTTLGDLDTELYNAGGRAMAHGICPTIRTGGHLTVGGLGPTARQWGLALDHIEEVEVVLANSSIVRASNTQNQDILFAVKGAAASFGIVTEFKVRTQEAPGLAVQYSFTFNLGSPAQKAKLVKDWQAFIAQENLSWKFYSNLVIFDGQIILEGIFFGSKEEYDELDLEKRFPTSEPGTVLVLTDWLGMIGHALEDTILKLVGDTPTWFYAKSLGFTPDTLIPDSAIDDFFDYIHKTNAGTLAWFVTLSLEGGAINSVSEDATAYGHRDVLFWFQVFVVNPLGPISQTTYDFTNGLYDVLAQAVPESAGHAYLGCPDPKMPDAQRAYWRSNLPRLEDLKGDLDPKDTFHNPQGVQVGP
B4: t808253 (protein)
chain: MGNTTSIAAGRDCLVSAVGPAHVTFQDALLYQTTAVDPYNLNIPVTPAAVTYPQSAEEIAAVVKCASDYDYKVQARSGGHSFGNYGLGGQNGAIVVEMKHFSQFSMDESTFVATIGPGTTLGDLDTELYNTGGRAMAHGICPTIRTGGHLTVGGLGPTARQWGLALDHIEEVEVVLANSSIVRASNTQNQDILFAVKGAAASFGIVTEFKVRTQEAPGLAVQYSFTFNLGSAAQKAKLVKDWQAFIAQENLSWKFYSNLVIFDGQIILEGIFFGSKEEYDELDLEKRFPTSEPGTVLVLTDWLGMIGHGLEDTILKLVGDTPTWFYAKSLGFTPDTLIPDSAIDDFFDYIHKTNAGTLAWFVTLSLEGGAINSVSEDATAYGHRDVLFWFQVFVVNPLGPISQTTYDFTNGLYDVLAQAVPESAGHAYLGCPDPKMPDAQRAYWRSNLPRLEDLKGDLDPKDTFHNPQGVQVGP
B5: t861559 (protein)
chain: MAPSISFSLLQISLLAYSGLVSGDFSLRQCLESAVSRVAFEGDPFYQLLSVRPYNLDISIVPAAVAFPADTNEVAAVVRCAAQNGYQVQAKSGGHSYANHGLGGTNGAVVVNLENLQHFSMNTTTWEATIGAGTLLGDVTKRLSDAGGRAMAHGTCPQVGSGGHFTIGGLGPSSRQFGAALDHIIEAEVVLANSSIIRASETENPDVFFAVRGAASGFGIVTEFKVRTEPEPGQAVRYSYSFSFSDTATRADLFKKWQAYVTQPDLPRELASTLTILEHGMFITGTFFGSKEEYNALKIETEFPGFAKGGTLVLDDWLGLVSNWAEDLLLSEEEIEQMFEYIDNVDKGTLLWFAIFDLQGGAVGDVPVDATAYAHRDTLIWLQSYAINLFGRISETTVEFLERLNELTLTSTAKTVPYAAYPGYVDPRLTDAQAAYWGSNLARLNRIKAEIDPNNVFHNPQSVRPASG
B6: t861586 (protein)
chain: MAPSISFSLLQISLLAYSGLVSGDFSLRQCLESAVSRVAFEGDPFYQLLSVRPYNLDISIVPAAVAFPADTNEVAAVVRCAAQNGYQVQAKSGGHSYANHGLGGTNGAVVVNLENLQHFSMNTTTWEATIGAGTLLGDVTKRLSDAGGRAMAHGTCPQVGSGGHFTIGGLGPSSRQFGAALDHIIEAEVVLANSSIIRASETENPDVFFAVRGAASGFGIVTEFKVRTEPEPGQAVRYSYSFSFSDTATRADLFKKWQAYVTQPDLPRELASTLTILEHGMFITGTFFGSKEEYNALKIETEFPGFAKGGTLVLDDWLGLVSNWAEDLLLSEEEIEQMFEYIDNVDKGTLLWFAIFDLQGGAVGDVPVDATAYAHRDTLIWLQSYAINLFGRISETTVEFLERLNELTLTSTAKTVPYAAYPGYVDPRLTDAQAAYWGSNLARLNRIKAEIDPNNVFHNPQSVRPASG

How the values were obtained:
CBCA production = test: In vivo TS activity assay, Example 4 CBCAS enzymes with and without signal peptides, no pH adjustment; assay type: cell-based; conditions: strains with (Y) or without (N) N-terminal and C-terminal signal peptides; no pH adjustment at Day 4; S. cerevisiae
Description: (§1) An assay to detect TS activity was conducted as follows: each thawed glycerol stock of candidate CBCAS transformants was stamped into a well of YEP+4% dextrose media. Samples were incubated at 30° C. in a shaking incubator for 2 days. A portion of each of the resulting cultures was stamped into a well of YEP+4% galactose+1 mM olivetolic acid (FIG. 1 Structure 6a). Samples were incubated at 20° C. and shaken in a shaking incubator for 4 days. Every 24 hours during those 4 days, 2% galactose and 1 mM olivetolic acid were spiked into the cultures. Sodium citrate buffer adjusted to pH 5.5 was added to each well at a final concentration of 100 mM. Samples were incubated at 20° C. and shaken in a shaking incubator for 2 days. A portion of each of the resulting production cultures was stamped into a well of phosphate buffered saline (PBS). Optical measurements were taken on a plate reader, with absorbance measured at 600 nm and fluorescence at 528 nm with 485 nm excitation. Samples were incubated at 30° C. in a shaking incubator for 2 days. 100% methanol was stamped into the production cultures in half-height deepwell plates. Plates were heat sealed and frozen. Samples were then thawed for 30 min and spun down at 4° C. A portion of the supernatant was stamped into half-area 96 well plates. CBCA, THCA, and CBDA production in the samples was quantified via liquid chromatography-mass spectrometry (LC-MS).
A library of 20 CBCAS enzymes selected from Example 1 and 3 was synthesized, including versions of the CBCAS enzymes with and without the N-terminal MFalpha2 signal peptide (SEQ ID NO: 16) and C-terminal HDEL signal peptide (SEQ ID NO: 17). Each candidate enzyme expression construct was transformed into an S. cerevisiae CEN.PK strain that also expressed a prenyltransferase enzyme capable of catalyzing reaction R^4 in FIG. 2. Strain t861555 expressing the A. niger CBCAS identified in Example 1, carrying both the Mfalpha2 and HDEL signal peptides was included in the library screen as a positive control for enzyme activity. Strain t861565 expressed the same A. niger CBCAS without the Mfalpha2 and HDEL signal peptides.
The strains were screened using the assay described in Example 1 with the following exception: at Day 4 samples were not subjected to a pH adjustment and a further 2 days of incubation at 20° C.

[1] = system: CBCA, THCA, and CBDA production; CBGA residual substrate; test: In vivo TS activity assay, Example 3 metagenomic CBCAS screen, cultures fed olivetolic acid; assay type: cell-based, S. cerevisiae; conditions: for Mean CBCA / Mean CBDA / Mean THCA: metagenomic CBCAS candidates in S. cerevisiae, secondary screen, quadruplicate; for Mean CBCA / Mean CBDA / Mean THCA / % CBCA / % CBDA / % THCA: fed 1 mM olivetolic acid; for Average CBGA residual substrate: olivetolic acid fed (Table 12); for % CBCA / % CBDA / % THCA: share of terminal cannabinoid product profile
Description: as §1
(§2) To explore whether other putative CBCASs may exist in the broader metagenome, a library of 1072 candidate CBCAS genes was designed using the A. niger CBCAS enzyme identified in Example 1 as a reference. Protein sequences were recoded in silico for expression in S. cerevisiae and synthesized in the integrative yeast expression vector shown in FIG. 5. Each candidate enzyme expression construct was transformed into an S. cerevisiae CEN.PK strain that also expressed a prenyltransferase enzyme capable of catalyzing reaction R^4 in FIG. 2. Strain t616313, expressing GFP, was included in the library screen as a negative control for enzyme activity. Strain t807925, expressing the A. niger enzyme identified in Example 1, was included in the library screen as a positive control for enzyme activity. All candidate enzymes in the library, as well as the enzyme expressed by positive control strain t807925, included an N-terminal MFalpha2 signal peptide (SEQ ID NO: 16) (with a methionine residue added at the N-terminus of the MFalpha2 signal peptide) and a C-terminal HDEL signal peptide (SEQ ID NO: 17).
The library of candidate CBCAS enzymes was assayed for activity in a primary high-throughput screen using the assay described in Example 1. Production of CBCA, THCA, and/or CBDA in the samples was quantified via LC-MS.
(§3) Based on results of the primary screen, 70 strains were carried forward to a secondary screen to confirm activity observed in the primary screen. The experimental protocol for the secondary screen was identical to the primary screen, except that additional technical replicates were included per strain, and replicate production cultures for each strain were separately fed 1 mM olivetolic acid or 1 mM divaric acid. All strains were screened in quadruplicate (FIGS. 10A-10C, Tables 10 and 11).

[2] = system: CBCVA, THCVA, and CBDVA production; CBGVA residual substrate; test: In vivo TS activity assay, Example 3 metagenomic CBCAS screen, cultures fed divaric acid; assay type: cell-based, S. cerevisiae; conditions: for Average CBGVA residual substrate: divaric acid fed (Table 12); for Mean CBCVA / Mean CBDVA / Mean THCVA: secondary screen, S. cerevisiae, quadruplicate, LC-MS; for Mean CBCVA / Mean CBDVA / Mean THCVA / % CBCVA / % CBDVA / % THCVA: cultures fed 1 mM divaric acid; for % CBCVA / % CBDVA / % THCVA: share of terminal cannabinoid products
Description: as §1, §2, §3

Molecule | Average CBCA (CBCA production) [µg/L] | Mean CBCA [1] [µg/L] | Mean CBDA [1] [µg/L] | Mean THCA [1] [µg/L] | Average CBGA residual substrate [1] [µg/L] | % CBCA [1] [%] | % CBDA [1] [%] | % THCA [1] [%] | Average CBGVA residual substrate [2] [µg/L] | Mean CBCVA [2] [µg/L] | Mean CBDVA [2] [µg/L] | Mean THCVA [2] [µg/L] | % CBCVA [2] [%] | % CBDVA [2] [%] | % THCVA [2] [%]
B1 | 520.64 |  |  |  |  |  |  |  |  |  |  |  |  |  | 
B2 | 21237.64 |  |  |  |  |  |  |  |  |  |  |  |  |  | 
B3 |  | 27052.63 | 420.85 | 1703.93 | 0.00 | 92.72 | 1.44 | 5.84 | 0.00 | 2651.55 | 15.16 | 1783.19 | 59.59 | 0.34 | 40.07
B4 |  | 15518.14 | 63.99 | 916.93 | 0.00 | 94.05 | 0.39 | 5.56 | 0.00 | 1476.99 | 0.00 | 715.85 | 67.35 | 0.00 | 32.65
B5 | 0.00 |  |  |  |  |  |  |  |  |  |  |  |  |  | 
B6 | 0.00 |  |  |  |  |  |  |  |  |  |  |  |  |  | 
